According to patent US20160002321A1 (HER MAJESTY THE QUEEN IN RIGHT OF CANADA AS REPRESENTED BY …, published 2016):

B1: F20G77 (antibody)
chain 1: EVQLEESGPELVSPGVSVKISCEGSGYTFTDYAMHWVKQSHARGLEWIGVIGSYSGNAHHNLNFKDKATMTVDKSSSTAYMELARLTSDDSAIYYCAY
chain 2: ELVMTQSPLSLPVSLGDQASISCRSSQSIIHSNGDTFLEWFLQKPGQSPKLLIYKVSNRFSGVPDRFSGSGSGTDFTLKISRVEAEDLGVYYCFQGSHVPLTFGAGTKLELK
B2: F20G76 (antibody, V domains shown)
VH: EVQLEESGPELVKPGASVKVSCKASGYSFTDYNMYWVKQSHGTSLEWIGVIDPNNGVTSYNQKFKDKATLTADKSSSTAFMHLNSLTSEDSAVYYCSRGGLDYWGQGTTLTVSS
VL: ELVMTQSPLSLPVSLGDQASISCRSSQSIIHSNGDTFLEWFLQKPGQSPKLLIYKVSNRFSGVPDRFSGSGSGTDFTLKISRVEAEDLGVYYCFQGSHVPLTFGAGTKLELKR

How the values were obtained:
[1] = target: recombinant anthrax protective antigen (rPA) (Bacillus anthracis, UniProt P13423 30-764); experiment: SPR, Biacore 2000, rPA on a CM5 chip, MAb in solution
[2] = target: T1, recombinant lethal factor (rLF) (Bacillus anthracis, UniProt P15917 34-809); experiment: Western immunoblot, 2 µg denatured protein
T1 sequence: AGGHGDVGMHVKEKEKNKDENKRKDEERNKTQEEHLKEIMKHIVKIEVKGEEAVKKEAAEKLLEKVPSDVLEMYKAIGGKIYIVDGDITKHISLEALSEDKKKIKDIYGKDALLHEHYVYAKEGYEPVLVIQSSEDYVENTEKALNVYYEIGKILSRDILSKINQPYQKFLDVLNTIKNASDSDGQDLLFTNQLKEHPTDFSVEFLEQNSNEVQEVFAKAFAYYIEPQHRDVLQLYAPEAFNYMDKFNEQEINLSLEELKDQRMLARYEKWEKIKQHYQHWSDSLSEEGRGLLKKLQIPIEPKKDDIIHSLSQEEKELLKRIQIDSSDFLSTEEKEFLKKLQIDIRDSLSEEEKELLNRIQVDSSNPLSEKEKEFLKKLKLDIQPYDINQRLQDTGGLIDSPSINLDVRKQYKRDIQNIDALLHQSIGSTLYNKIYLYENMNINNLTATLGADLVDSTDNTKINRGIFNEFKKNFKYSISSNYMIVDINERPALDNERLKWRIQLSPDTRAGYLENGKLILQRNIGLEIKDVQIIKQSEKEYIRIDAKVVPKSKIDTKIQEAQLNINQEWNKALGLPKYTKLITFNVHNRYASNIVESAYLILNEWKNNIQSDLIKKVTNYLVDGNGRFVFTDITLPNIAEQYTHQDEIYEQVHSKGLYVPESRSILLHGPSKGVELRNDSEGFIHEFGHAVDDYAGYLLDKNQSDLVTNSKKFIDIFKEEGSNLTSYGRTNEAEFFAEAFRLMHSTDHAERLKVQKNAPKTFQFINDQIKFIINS

[3] = target: bovine serum albumin (BSA) (bovine, UniProt P02769 25-607); experiment: endpoint ELISA, antigen coated at 100 ng/well
[4] = target: chymotrypsin digested rPA (47 and 37 kDa fragments) (Bacillus anthracis, UniProt P13423 30-343; P13423 344-764); experiment: Western immunoblot of chymotrypsin digested rPA
Sequence of chymotrypsin digested rPA (47 and 37 kDa fragments) (P13423 30-343 limits assumed, chain 1 of 2): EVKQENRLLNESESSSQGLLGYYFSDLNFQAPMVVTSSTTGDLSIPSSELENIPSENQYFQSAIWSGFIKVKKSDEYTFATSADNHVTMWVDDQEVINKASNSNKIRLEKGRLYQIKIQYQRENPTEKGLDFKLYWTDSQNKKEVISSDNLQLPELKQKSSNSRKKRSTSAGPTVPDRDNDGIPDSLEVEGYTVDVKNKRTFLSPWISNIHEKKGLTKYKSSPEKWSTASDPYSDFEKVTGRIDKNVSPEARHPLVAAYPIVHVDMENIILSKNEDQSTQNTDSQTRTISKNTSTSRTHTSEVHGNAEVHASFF
Sequence of chymotrypsin digested rPA (47 and 37 kDa fragments) (P13423 344-764 limits assumed, chain 2 of 2): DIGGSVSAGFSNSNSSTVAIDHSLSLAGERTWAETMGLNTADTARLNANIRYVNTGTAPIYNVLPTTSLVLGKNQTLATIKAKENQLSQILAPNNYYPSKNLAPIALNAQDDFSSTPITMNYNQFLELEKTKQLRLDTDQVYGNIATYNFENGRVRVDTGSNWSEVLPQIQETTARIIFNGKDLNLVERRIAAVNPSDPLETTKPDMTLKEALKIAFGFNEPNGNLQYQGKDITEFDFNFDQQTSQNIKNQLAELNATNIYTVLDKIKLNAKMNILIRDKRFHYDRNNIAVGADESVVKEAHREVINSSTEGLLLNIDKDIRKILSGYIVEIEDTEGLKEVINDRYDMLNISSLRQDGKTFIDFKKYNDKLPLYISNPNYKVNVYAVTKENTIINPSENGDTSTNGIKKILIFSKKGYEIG

Sequence of recombinant anthrax protective antigen (rPA) (P13423 30-764): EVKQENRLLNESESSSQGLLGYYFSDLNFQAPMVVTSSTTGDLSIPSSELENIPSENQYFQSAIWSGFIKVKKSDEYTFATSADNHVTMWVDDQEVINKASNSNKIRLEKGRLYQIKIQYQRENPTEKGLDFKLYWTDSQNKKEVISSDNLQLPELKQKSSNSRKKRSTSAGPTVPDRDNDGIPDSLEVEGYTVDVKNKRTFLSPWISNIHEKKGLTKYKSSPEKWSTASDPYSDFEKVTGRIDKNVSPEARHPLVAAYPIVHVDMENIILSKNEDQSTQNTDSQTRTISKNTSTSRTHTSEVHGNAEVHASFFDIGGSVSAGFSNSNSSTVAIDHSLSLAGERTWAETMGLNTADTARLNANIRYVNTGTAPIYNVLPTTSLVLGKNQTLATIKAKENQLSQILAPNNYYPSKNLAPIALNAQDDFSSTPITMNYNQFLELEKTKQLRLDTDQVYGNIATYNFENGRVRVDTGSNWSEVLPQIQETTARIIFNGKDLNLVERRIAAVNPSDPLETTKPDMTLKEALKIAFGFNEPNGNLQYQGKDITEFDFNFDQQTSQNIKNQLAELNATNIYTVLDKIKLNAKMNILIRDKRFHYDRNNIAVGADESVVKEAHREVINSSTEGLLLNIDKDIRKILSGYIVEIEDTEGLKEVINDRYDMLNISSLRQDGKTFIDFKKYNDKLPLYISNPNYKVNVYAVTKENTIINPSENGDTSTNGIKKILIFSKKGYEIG
Sequence of bovine serum albumin (BSA) (P02769 25-607 limits assumed): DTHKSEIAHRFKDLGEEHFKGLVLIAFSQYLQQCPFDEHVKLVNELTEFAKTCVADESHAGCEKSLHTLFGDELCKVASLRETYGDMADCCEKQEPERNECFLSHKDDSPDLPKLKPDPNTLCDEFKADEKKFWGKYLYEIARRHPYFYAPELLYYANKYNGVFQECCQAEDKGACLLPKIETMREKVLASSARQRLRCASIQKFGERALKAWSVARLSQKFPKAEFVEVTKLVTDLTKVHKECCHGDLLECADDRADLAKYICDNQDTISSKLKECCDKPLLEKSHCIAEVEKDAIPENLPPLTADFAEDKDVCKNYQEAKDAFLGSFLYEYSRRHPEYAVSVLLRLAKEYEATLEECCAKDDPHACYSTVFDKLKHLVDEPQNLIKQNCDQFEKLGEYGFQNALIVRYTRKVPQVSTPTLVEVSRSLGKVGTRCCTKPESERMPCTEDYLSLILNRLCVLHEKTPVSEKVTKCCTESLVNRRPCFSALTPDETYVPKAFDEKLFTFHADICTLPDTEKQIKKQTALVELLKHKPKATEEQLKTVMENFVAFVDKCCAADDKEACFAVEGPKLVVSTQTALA

Binder | Kd [1] [nM] | koff [1] [s⁻¹] | kon [1] [M⁻¹ s⁻¹] | binding result [2] | binding result [3] | binding result [4]
B1 | 0.46 | 1.4e-06 | 3100 | – | – | –
B2 | 18.5 | 6.8e-05 | 4000 | no binding | no binding | no binding
